Results: patent publication US10280218B2, “Antibodies binding to BMP4, and uses thereof” (ACADEMISCH MEDISCH CENTRUM, priority 2014, dated 2019)
Entries after “also recorded” stand apart in the source; their conditions may differ.

T1: BMP7 (Homo sapiens, UniProt P18075)
T1 sequence (P18075 293-431): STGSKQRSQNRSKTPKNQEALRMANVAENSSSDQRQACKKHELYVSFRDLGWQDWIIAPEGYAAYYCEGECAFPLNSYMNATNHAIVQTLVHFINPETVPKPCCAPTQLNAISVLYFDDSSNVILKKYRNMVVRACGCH

T2: BMP2 (Homo sapiens, UniProt P12643)
T2 sequence (P12643 283-396): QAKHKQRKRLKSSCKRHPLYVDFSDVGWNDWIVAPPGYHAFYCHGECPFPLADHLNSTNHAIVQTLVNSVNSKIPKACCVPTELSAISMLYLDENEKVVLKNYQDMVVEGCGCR

B1: C8E7: E7 linked to C8, hetero-dimer VHH bihead (protein)
chain: EVQLVESGGGLVQAGGSLRLSCAASGRTFRINDMGWYRQAPGKSRDMVARITSGGNTNYADSVKGRFTISRDNAKNTVYLQMNSLKPEDTAVYYCNADGLRFDSTRYRPFDSWGQGTQVTVSSGGGGSGGGGSEVQLVESGGGLVQAGGSLRLSCAASGSIRGFVAMAWYRQAPGKQREWVATVTNGGTLYGDSVKGRFTGSRDNAKNTVYLQMNSLKPEDTAVYYCALRQIGASGYDYWGQGTQVTVSS
B2: hNoggin (protein)
chain: QHYLHIRPAPSDNLPLVDLIEHPDPIFDPKEKDLNETLLRSLLGGHYDPGFMATSPPEDRPGGGGGAAGGAEDLAELDQLLRQRPSGAMPSEIKGLEFSEGLAQGKKQRLSKKLRRKLQMWLWSQTFCPVLYAWNDLGSRFWPRYVKVGSCFSKRSCSVPEGMVCKPSKSVHLTVLRWRCQRRGGQRCGWIPIQYPIISECKCSC

Experiments:
BMP7 = molecular target: T1, BMP7; test: Surface plasmon resonance (SPR), BMPs injected over VHH-coated chip; format: binding; conditions: for Kd: molecule coupled to chip, unit inferred, — not defined there (Table 1: No binding detected)
Method: To confirm their BMP specificities and to elucidate their binding affinities, our VHHs were subjected to surface plasmon resonance (SPR) analysis. In a first set of experiments, controls and VHHs (either as monomers or dimers) were coupled to SPR chips and the measurement of BMP affinities was obtained by injecting the different BMPs to the plate.
Serial dilutions (2.0-10 μg/ml) of purified VHHs were spotted on an amine-specific SensEye gold-film gel-type SPRchip (Ssens), using a Continuous Flow Microspotter (Wasatch Microfluidics, Salt Lake City, Utah, United States) as described (Lokate et al., 2007). BMP binding was analyzed on an IBIS MX96 (IBIS Technologies, Enschede, The Netherlands) instrument by performing injections with dilution series (0.05-2.0 μg/ml) of recombinant BMPs on the VHH-coated chip. In each injection, BMPs were injected and incubated for 8 min, followed by 15 min thorough washing with binding buffer (PBS+0.05% Tween20+0.05% sodium azide) to measure dissociation. Epitope binning was done by injecting VHH dilutions (2.0 μg/ml) over the chip, immediately after the dissociation step. Injections with blank binding buffer were used as reference. After each concatenated injection, the chip was regenerated with 10 mM glycine-HCl, pH 2.0. Experimental data were processed with SPRintX software (IBIS Technologies) and kinetic parameters were determined using Scrubber2 software (BioLogic Software, Campbell, ACT, Australia). Binding constants were obtained by global fitting to a one-site binding model.

human BMP4 = test: BMP activity luciferase reporter assay (BRE-luciferase, ID1 promoter) in C2C12 cells; format: cell-based, mouse
Method: (§1) One of the most studied BMP target genes is the Inhibitor of Differentiation 1 (ID1). This is an immediate early gene that is activated by binding of the phosphorylated SMADs to its promoter region (López-Rovira et al., 2002). Thus, we employed the BMP-responsive C2C12 cells, which are stably transfected with the BRE-luciferase vector containing the BMP-Responsive-Element (the mouse ID1 promoter) cloned into the pGL3 luciferase vector (Zilberberg 2007). […] C2C12 cells were treated with the different BMPs with or without our VHHs or human Noggin at a concentration of 5 μg/ml. Luciferase activity was measured after 16 hours incubation. Most of the transcriptional data is in concordance with the results obtained with the phosphorylation of SMAD1/5/8.
(§2) C2C12 cells were plated in 96-well plates at 5×10^3 cells/well and cells were allowed to attach overnight. 100 μl of DMEM with 0.1% BSA were added in each well. VHH antibodies and human Fc-Noggin at the indicated concentrations were added at the same time. Wells with unstimulated cells were added as controls. Cells were treated in triplicate with the BMPs at the indicated concentrations for 16 hours. Luciferase activity was measured by adding 100 μl of luciferase substrate solution from the Bright-Glo™ Luciferase Assay System (Promega Benelux, Leiden, The Netherlands). After 3 minutes of incubation, luciferase activity was measured with Synergy HT Multi-Mode Microplate Reader (Biotek, Winooski, Vt., United States). Luciferase values were normalized to background activity (activity of wells with no cells) and represented as ratio to the activity of BMP-stimulated cells.
(§3) To evaluate the extent of this increase in potency, the IC50 of the different VHHs were determined in a dose-dependent inhibition assay in C2C12 cells (FIG. 25). C2C12 cells were plated in 96-well plates at 5×10^3 cells/well and cells were allowed to attach overnight 100 μl of DMEM with 0.1% BSA were added in each well. VHH antibodies were added at the indicated concentrations at the same time as 5 ng/ml BMP4 (FIG. 25A-B, D) or 50 ng/ml of BMP2 (FIG. 25C,D). Luciferase activity was measured after 16 hours. Values are represented as ratio to the activity of BMP-stimulated cells. […] However, its effects were more striking for BMP2 rather than BMP4 inhibition. […] The IC50 values for BMP4 inhibition observed in our VHHs are considerably lower than those observed for anti-BMP4 commercially available from R&D (Katagiri et al 1994) and those described in WO_2008/030611.
(§4) C2C12 cells were cultured in 96-well plates at 5×10^3 cells/well. After overnight attachment cells were stimulated with 10 ng/ml hBMP4 (Cat No. 314-BP-020; R&D Systems), 50 ng/ml hBMP2 (Cat No. 355-BM-010; R&D Systems), 200 ng/ml hBMP5 (Cat No. 615-BMC-020; R&D Systems), 50 ng/ml hBMP6 (Cat No. 506-BP-020; R&D Systems), 200 ng/ml hBMP7 (Cat No. 354-BP-010; R&D Systems), 25 ng/ml hBMP9 (Cat No. 3209-BP-010; R&D Systems), 25 ng/ml hBMP10 (Cat No. 2926-BP-025; R&D Systems), 50 ng/ml hBMP12 (Cat No. 779-G7-010; R&D Systems) and with or without VHH antibodies: C4C4 and C8C8 at 500 ng/ml; natural antagonist: mNoggin (Cat No. 1967-NG-025; R&D Systems), hNoggin (Cat No. 6057-NG; R&D Systems) and mGremlin (cat#956-GR-050; R&D Systems) at 500 ng/ml; chemical antagonist: 0.5 μM LDN-193189 (Cat No. 11802; Cayman Chemical) and 0.2 μM DMH1 (Cat No. 57146; Selleckchem).
(§5) VHH efficacy was evaluated by stimulating cells with 10 ng/ml of hBMP4 and 50 ng/ml of hBMP2, with and without increase concentrations (from 0.1-10 μg/ml) of VHH and anti-BMP4 antibodies: clone 66119, clone 3H2, clone M912262, clone PA354-16.1.1, Clone EPR6211, and anti-BMP4 (ab39973). […] Unstimulated cells were used as controls and wells with no cells used to normalize the background activity. […]

BMP2 = molecular target: T2, BMP2; test: as above; format: cell-based, mouse
Method: as §1, §2, §3, §4, §5

| Molecule | unspecific binding of dimers to BMP7 (SPR, in words) (BMP7; in contrast to the functional results) | Kd (BMP7) | inhibition of BMP4-mediated transcriptional activation by dimers (human BMP4; BMP4 5 ng/ml, 16 hours, increasing concentrations) | inhibition of BMP2-mediated transcriptional activation by dimers (BMP2; BMP2 50 ng/ml, 16 hours, increasing concentrations up to 5 μg/ml) | inhibition of BMP4-derived signals, comparison of inhibitors (human BMP4; 10 ng/ml hBMP4, 16 h, VHH, Noggin, Gremlin 500 ng/ml, LDN 0.5 μM, DMH1 0.2 μM) | IC50 (human BMP4; 10 ng/ml hBMP4, 16 hours, read-out: IC50, neutralization of BMP4) | inhibition of BMP-2 signals, comparison of inhibitors (BMP2; 50 ng/ml hBMP2, 16 h, VHH, Noggin, Gremlin 500 ng/ml, LDN 0.5 μM, DMH1 0.2 μM) | IC50 (BMP2; 50 ng/ml hBMP2, 16 hours, read-out: IC50, neutralization of BMP2) |
| --- | --- | --- | --- | --- | --- | --- | --- | --- |
| B1 | shown to bind | 31 nM | inhibit; also recorded: similar | inhibit; also recorded: similar | – | – | – | – |
| B2 | – | 80 nM | – | – | greatly inhibit | ~0.54 nM | greatly inhibit | ~1.6 nM |
